Assays:
Type in all cases: tissue-based
[1] = compound: CC(=O)Oc1cccc(C(=O)Nc2nnc(-c3ccc(C)cc3)s2)c1; test: (§1) Inhibition of albino mouse brain AChE assessed as Km for substrate using acetylthiocholine iodide as substrate measured for 2 mins by Ellmans method
[2] = compound: CC(CC(=O)Nc1nnc(Cc2ccccc2)s1)CC(C)(C)C; test: as §1
[3] = compound: O=C(Nc1nnc(Cc2ccccc2)s1)c1cccc(CCl)c1; test: as §1
[4] = compound: CC(=O)Oc1cccc(C(=O)Nc2nnc(-c3ccccc3Cl)s2)c1; test: as §1
[5] = compound: CC(=O)Oc1cccc(C(=O)Nc2nnc(-c3ccccc3)s2)c1; test: as §1
[6] = compound: CC(=O)Oc1cccc(C(=O)Nc2nnc(Cc3ccccc3)s2)c1; test: as §1
[7] = compound: Cc1ccc(-c2nnc(NC(=O)c3cccc(CCl)c3)s2)cc1; test: as §1
[8] = compound: O=C(Nc1nnc(-c2ccccc2Cl)s1)c1cc(C(F)(F)F)cc(C(F)(F)F)c1; test: as §1
[9] = compound: O=C(Nc1nnc(-c2ccccc2)s1)c1cccc(CCl)c1; test: as §1
[10] = compound: Cc1ccc(-c2nnc(NC(=O)c3cc(C(F)(F)F)cc(C(F)(F)F)c3)s2)cc1; test: as §1
[11] = compound: O=C(Nc1nnc(-c2ccccc2Cl)s1)c1cccc(CCl)c1; test: as §1
[12] = compound: CC(CC(=O)Nc1nnc(-c2ccccc2)s1)CC(C)(C)C; test: as §1
[13] = compound: CC(CC(=O)Nc1nnc(-c2cccc(Cl)c2)s1)CC(C)(C)C; test: as §1
[14] = compound: Cc1ccc(-c2nnc(NC(=O)CC(C)CC(C)(C)C)s2)cc1; test: as §1

B1: Acetylcholinesterase (Mus musculus), P21836 (protein)
chain: MRPPWYPLHTPSLAFPLLFLLLSLLGGGARAEGREDPQLLVRVRGGQLRGIRLKAPGGPVSAFLGIPFAEPPVGSRRFMPPEPKRPWSGVLDATTFQNVCYQYVDTLYPGFEGTEMWNPNRELSEDCLYLNVWTPYPRPASPTPVLIWIYGGGFYSGAASLDVYDGRFLAQVEGAVLVSMNYRVGTFGFLALPGSREAPGNVGLLDQRLALQWVQENIAAFGGDPMSVTLFGESAGAASVGMHILSLPSRSLFHRAVLQSGTPNGPWATVSAGEARRRATLLARLVGCPPGGAGGNDTELIACLRTRPAQDLVDHEWHVLPQESIFRFSFVPVVDGDFLSDTPEALINTGDFQDLQVLVGVVKDEGSYFLVYGVPGFSKDNESLISRAQFLAGVRIGVPQASDLAAEAVVLHYTDWLHPEDPTHLRDAMSAVVGDHNVVCPVAQLAGRLAAQGARVYAYIFEHRASTLTWPLWMGVPHGYEIEFIFGLPLDPSLNYTTEERIFAQRLMKYWTNFARTGDPNDPRDSKSPQWPPYTTAAQQYVSLNLKPLEVRRGLRAQTCAFWNRFLPKLLSATDTLDEAERQWKAEFHRWSSYMVHWKNQFDHYSKQERCSDL
Km [1]: 8.01 µM | Km [2]: 24.9 µM | Km [3]: 12.9 µM | Km [4]: 16 µM | Km [5]: 1.37 µM | Km [6]: 4.47 µM | Km [7]: 1.9 µM | Km [8]: 2.35 µM | Km [9]: 16.4 µM | Km [10]: 4.89 µM | Km [11]: 15.3 µM | Km [12]: 9.09 µM | Km [13]: 17.7 µM | Km [14]: 7.86 µM

Source: ChEMBL document CHEMBL3865823, “Ameliorative effects of amide derivatives of 1,3,4-thiadiazoles on scopolamine induced cognitive dysfunction” (Eur J Med Chem, 2016)
